This data set deals with the molecule itself. As to the kind of experiment: SEC.

The values below come from article PMC6076860 (Analytical biochemistry, 2018).

B1: PCD αβ dimer (protomer of the protocatechuate 3,4-dioxygenase holoenzyme complex) from Pseudomonas putida (complex)
chain 1: MPIELLPETPSQTAGPYVHIGLALEAAGNPTRDQEIWNRLAKPDAPGEHILLLGQVYDGNGHLVRDSFLEVWQADANGEYQDAYNLENAFNSFGRTATTFDAGEWTLHTVKPGVVNNAAGVPMAPHINISLFARGINIHLHTRLYFDDEAQANAKCPVLNLIEQPQRRETLIAKRCEVDGKTAYRFDIRIQGEGETVFFDF
chain 2: MPAQDNSRFVIRDRNWHPKALTPDYKTSIARSPRQALVSIPQSISETTGPNFSHLGFGAHDHDLLLNFNNGGLPIGERIIVAGRVVDQYGKPVPNTLVEMWQANAGGRYRHKNDRYLAPLDPNFGGVGRCLTDSDGYYSFRTIKPGPYPWRNGPNDWRPAHIHFGISGPSIATKLITQLYFEGDPLIPMCPIVKSIANPEAVQQLIAKLDMNNANPMDCLAYRFDIVLRGQRKTHFENC
As for B1, the binding result is on record as “binds”.
